Measured values from the MegaScale stability set (Tsuboyama et al. 2023).

B1: 5KPH (parent)
chain: EEKRQVKQVAKEKLLEQSPNSKVQVRRVQKQGNTIRVELELRTNGKKENYTVEVERQGNTWTVKRITRT

Variants of: B1
Assay: folding stability dG (cDNA display proteolysis); higher = more stable
Conditions: PBS, room temperature

Folding stability dG [kcal/mol] of substitutions, site by site:
I35: L 3.71 | F 4.81 | V 3.81 | D 1.2 | E 1.93 | K 1.48 | P 0.813 | Q 2.79 | N 2.81 | M 4.13 | C 3.39 | H 4.15 | T 3.82 | A 3.73 | S 3.37 | R 2.6 | G 2.57
E38: D 3.91 | N 3.51 | R 3.69 | G 3.2 | Y 4.76 | A 3.62 | W 4.29 | H 4.14 | L 4.18 | V 3.85 | P 1.08 | K 3.7 | C 3.66 | S 3.89 | F 4.66 | M 4.43 | I 4.1 | T 3.99 | Q 3.76
V37: T 1.28 | I 3.5 | L 3.33 | Y 2.32 | Q -0.216 | C 2.65 | M 2.89 | G 1.21 | F 2.39 | A 2.15 | S 0.645 | R -0.176 | H -0.646 | W 1.87 | K 0.177 | N -0.204
T43: W 3.7 | M 3.68 | R 3.47 | V 3.65 | Q 3.91 | I 3.72 | S 3.85 | P 2.17 | C 3.24 | D 3.65 | K 3.69 | F 3.87 | L 3.94 | E 3.78 | H 3.98 | G 3.6 | Y 3.88 | A 3.72 | N 3.87
V52: A 3.31 | C 2.92 | G 0.851 | F 2.52
N44: L 3.83 | Y 3.78 | S 3.76 | M 3.84 | I 3.46 | Q 3.67 | P 3.4 | V 3.47 | K 3.77 | E 4.02 | A 3.81 | D 3.79 | R 3.66 | T 3.27 | G 3.79 | W 3.67 | C 3.5 | H 3.79 | F 3.7
K46: T 3.85 | W 3.7 | R 4.01 | E 3.44 | H 3.9 | Y 3.93 | I 4.03 | F 3.81 | C 3.6 | V 3.98 | L 3.79 | Q 3.84 | P 2.63 | D 3.43 | S 3.73 | A 3.65 | M 3.89 | G 3.49 | N 3.81
E48: I 3.52 | K 3.22 | L 3.39 | P 1.23 | H 3.34 | V 3.63 | A 3.58 | W 3.87 | Q 3.7 | F 3.57 | T 3.65 | Y 3.75 | G 2.67 | N 3.08 | M 3.55 | S 3.57 | R 3.35 | D 3.35 | C 3.38
G45: A 3.5 | I 2.91 | W 3.66 | K 3.4 | S 3.75 | M 3.52 | E 3.49 | H 3.44 | V 2.85 | Y 3.55 | T 3.49 | C 3.29 | R 3.42 | D 3.57 | F 3.97 | Q 3.5 | N 3.55 | L 3.42 | P 1.96
T51: H 3.24 | S 3.75 | Q 3.56 | E 3.87 | M 3.95 | V 4.22 | R 3.33 | D 3.01 | F 3.66 | W 3.98 | K 3 | C 3.59 | A 3.6 | N 3.09 | L 3.99 | Y 3.75 | G 2.5 | I 4.13
R36: F 4.35 | S 3.85 | D 2.45 | G 2.54 | H 4.04 | T 3.9 | V 4.13 | A 3.64 | P 0.344 | K 4.23 | E 3.54 | L 4.33 | M 4.23 | N 3.7 | I 4.34 | W 4.21 | Q 3.75 | Y 4.54 | C 3.57
Y50: K 1.24 | G 0.705 | P -0.674 | E -0.081 | T 1.47 | F 3.74 | C 2.79 | M 2.58 | I 3.17 | N 0.663 | H 2.1 | S 1.25 | R 1.2 | L 2.84 | A 2.98 | V 3.56 | W 4.12 | Q 1.33
L39: W 2.03 | A 3.65 | Y 2.59 | V 3.83 | T 2.59 | H 0.352 | S 1.55 | N -0.472 | C 3.88 | M 3.66 | I 3.67 | G 2.35 | R -0.147 | F 3.48 | K -0.798
L41: D 2.04 | G 2.38 | M 3.89 | Y 2.35 | H 2.19 | I 3.59 | R 2.65 | E 1.66 | N 1.7 | C 3.37 | P 0.528 | A 3.63 | V 4.07 | Q 2.91 | W 2.39 | S 3.24 | K 2.73 | T 3.36 | F 2.69
E40: T 4.12 | P 0.357 | C 3.51 | M 3.87 | K 3.32 | S 3.73 | V 4.23 | A 3.52 | H 3.59 | F 3.81 | R 3.46 | N 3.12 | I 4.1 | Y 3.89 | D 3.04 | L 3.96 | G 2.84 | Q 3.91 | W 3.95
T34: V 4.08 | Y 3.92 | R 3.63 | D 2.93 | P 2.41 | K 3.4 | G 3.44 | I 3.97 | W 3.65 | S 3.59 | Q 3.38 | L 3.96 | C 3.48 | E 2.99 | H 3.57 | F 3.81 | M 3.85 | N 3.44
N49: E 3.61 | T 4.14 | W 4.2 | L 4.4 | P 2.7 | R 4.09 | S 3.86 | H 4.04 | A 3.73 | M 4.18 | G 3.81 | F 4.14 | V 4.07 | K 4.23 | I 4.22 | C 3.73 | Q 3.93 | Y 4.3 | D 3.57
R42: F 4.66 | L 4.08 | D 4.2 | W 4.57 | H 3.91 | P 1.28 | I 4.28 | E 4.12 | Q 3.81 | C 3.54 | M 3.85 | K 3.57 | S 3.91 | T 4.4 | N 4.19 | Y 4.45 | A 3.59 | G 3.04 | V 4.14
K47: F 3.86 | P 3.31 | Y 3.8 | W 3.75 | H 3.94 | E 3.13 | C 3.64 | R 4.02 | G 3.03 | N 3.59 | M 3.77 | T 4.05 | S 3.92 | V 4.06 | A 3.71 | Q 3.64 | I 4.14 | D 2.91 | L 4.04
